Publication PMC9352680, “A comprehensive thermodynamic model for RNA binding by the Saccharomyces cerevisiae Pumilio protein PUF4”
Numbering of substitutions follows the chain as printed. In names and notes the source's numbering stands.

T1: PUF4 RNA-binding domain (Saccharomyces cerevisiae, UniProt P25339 537-888)
T1 sequence: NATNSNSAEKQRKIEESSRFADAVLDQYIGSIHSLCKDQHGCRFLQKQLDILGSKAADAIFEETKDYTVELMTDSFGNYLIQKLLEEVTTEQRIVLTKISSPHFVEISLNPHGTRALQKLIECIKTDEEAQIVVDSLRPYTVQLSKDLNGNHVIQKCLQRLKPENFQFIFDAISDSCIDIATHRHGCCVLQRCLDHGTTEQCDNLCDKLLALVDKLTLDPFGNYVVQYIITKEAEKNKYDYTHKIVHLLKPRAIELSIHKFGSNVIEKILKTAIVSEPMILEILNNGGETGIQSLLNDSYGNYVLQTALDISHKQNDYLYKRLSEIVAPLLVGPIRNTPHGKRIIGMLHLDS

B1: Id_ii_S2_P4E.3_K4.2_C4.2_[C-2T]_[T-1C]_H4.2_A4.1_F4.1_T4.2_[G10A] (ssRNA)
RNA: UUUGAUUAAUAUGAUAUCGUUCUUUCUUCUAUAUAUUAAUUUCUUUCUCGAUAUCAUAUUAAUCUUU
B2: Id_ii_S2_P4E.3_K4.2_C4.2_[T-1G]_H4.2_A4.1_F4.1_T4.2_[G10T] (ssRNA)
RNA: B1 RNA with U28C, C29G, A39U
B3: Id_ii_S2_P4E.3_K4.2_C4.2_[C-2T]_H4.2_A4.1_F4.1_T4.2_[G10A]_[T11G] (ssRNA)
RNA: B1 RNA with C29U, U40G
B4: Id_ii_S2_P4E.3_K4.2_C4.2_[C-2A]_[T-1C]_H4.2_A4.1_F4.1_T4.2_[G10T]_[T11C] (ssRNA)
RNA: B1 RNA with U28A, A39U, U40C
B5: Id_ii_S2_P4E.3_K4.2_C4.2_[C-2T]_H4.2_A4.1_F4.1_T4.2_[G10C] (ssRNA)
RNA: B1 RNA with C29U, A39C
B6: Id_ii_S2_P4E.3_K4.2_C4.2_[C-2T]_H4.2_A4.1_F4.1_T4.2_[G10T]_[T11A] (ssRNA)
RNA: B1 RNA with C29U, A39U, U40A
B7: Id_ii_S2_P4E.3_K4.2_C4.2_[C-2A]_H4.2_A4.1_F4.1_T4.2_[G10T]_[T11C] (ssRNA)
RNA: B1 RNA with U28A, C29U, A39U, U40C
B8: Id_ii_S2_P4E.3_K4.2_C4.2_[C-2A]_[T-1G]_H4.2_A4.1_F4.1_T4.2_[G10A]_[T11A] (ssRNA)
RNA: B1 RNA with U28A, C29G, U40A
B9: Id_ii_S2_P4E.3_K4.2_C4.2_[C-2A]_[T-1A]_H4.2_A4.1_F4.1_T4.2_[G10A]_[T11A] (ssRNA)
RNA: B1 RNA with U28A, C29A, U40A
B10: Id_ii_S2_P4E.3_K4.2_C4.2_[C-2T]_[T-1A]_H4.2_A4.1_F4.1_T4.2_[G10A] (ssRNA)
RNA: B1 RNA with C29A
B11: Id_ii_S2_P4E.3_K4.2_C4.2_[C-2A]_[T-1C]_H4.2_A4.1_F4.1_T4.2_[G10C]_[T11A] (ssRNA)
RNA: B1 RNA with U28A, A39C, U40A
B12: Id_ii_S2_P4E.3_K4.2_C4.2_[C-2A]_[T-1C]_H4.2_A4.1_F4.1_T4.2_[G10A]_[T11A] (ssRNA)
RNA: B1 RNA with U28A, U40A
B13: Id_ii_S2_P4E.3_K4.2_C4.2_[T-1G]_H4.2_A4.1_F4.1_T4.2_[G10A]_[T11A] (ssRNA)
RNA: B1 RNA with U28C, C29G, U40A
B14: Id_ii_S2_P4E.3_K4.2_C4.2_[C-2A]_[T-1C]_H4.2_A4.1_F4.1_T4.2_[G10C]_[T11G] (ssRNA)
RNA: B1 RNA with U28A, A39C, U40G
B15: Id_ii_S2_P4E.3_K4.2_C4.2_[C-2T]_H4.2_A4.1_F4.1_T4.2_[G10C]_[T11C] (ssRNA)
RNA: B1 RNA with C29U, A39C, U40C
B16: Id_ii_S2_P4E.3_K4.2_C4.2_[C-2T]_[T-1A]_H4.2_A4.1_F4.1_T4.2_[G10T] (ssRNA)
RNA: B1 RNA with C29A, A39U
B17: Id_ii_S2_P4E.3_K4.2_C4.2_[C-2T]_H4.2_A4.1_F4.1_T4.2_[G10A] (ssRNA)
RNA: B1 RNA with C29U
B18: Id_ii_S2_P4E.3_K4.2_C4.2_[C-2T]_H4.2_A4.1_F4.1_T4.2 (ssRNA)
RNA: B1 RNA with C29U, A39G
B19: Id_ii_S2_P4E.3_K4.2_C4.2_[C-2A]_[T-1A]_H4.2_A4.1_F4.1_T4.2_[G10C] (ssRNA)
RNA: B1 RNA with U28A, C29A, A39C
B20: Id_ii_S2_P4E.3_K4.2_C4.2_[C-2A]_[T-1G]_H4.2_A4.1_F4.1_T4.2_[G10T]_[T11C] (ssRNA)
RNA: B1 RNA with U28A, C29G, A39U, U40C
B21: Id_ii_S2_P4E.3_K4.2_C4.2_[C-2T]_H4.2_A4.1_F4.1_T4.2_[G10T]_[T11C] (ssRNA)
RNA: B1 RNA with C29U, A39U, U40C
B22: Id_ii_S2_P4E.3_K4.2_C4.2_[C-2A]_[T-1A]_H4.2_A4.1_F4.1_T4.2_[G10A]_[T11G] (ssRNA)
RNA: B1 RNA with U28A, C29A, U40G
B23: Id_ii_S2_P4E.3_K4.2_C4.2_[C-2A]_[T-1C]_H4.2_A4.1_F4.1_T4.2_[G10C]_[T11C] (ssRNA)
RNA: B1 RNA with U28A, A39C, U40C
B24: Id_ii_S2_P4E.3_K4.2_C4.2_[C-2A]_[T-1A]_H4.2_A4.1_F4.1_T4.2_[G10T] (ssRNA)
RNA: B1 RNA with U28A, C29A, A39U
B25: Id_ii_S2_P4E.3_K4.2_C4.2_[C-2T]_H4.2_A4.1_F4.1_T4.2_[G10A]_[T11A] (ssRNA)
RNA: B1 RNA with C29U, U40A
B26: Id_ii_S2_P4E.3_K4.2_C4.2_[C-2T]_H4.2_A4.1_F4.1_T4.2_[G10T]_[T11G] (ssRNA)
RNA: B1 RNA with C29U, A39U, U40G
B27: Id_ii_S2_P4E.3_K4.2_C4.2_[C-2A]_[T-1C]_H4.2_A4.1_F4.1_T4.2_[G10T] (ssRNA)
RNA: B1 RNA with U28A, A39U
B28: Id_ii_S2_P4E.3_K4.2_C4.2_[C-2T]_[T-1A]_H4.2_A4.1_F4.1_T4.2_[G10C]_[T11C] (ssRNA)
RNA: B1 RNA with C29A, A39C, U40C
B29: Id_ii_S2_P4E.3_K4.2_C4.2_[C-2A]_[T-1A]_H4.2_A4.1_F4.1_T4.2_[G10C]_[T11C] (ssRNA)
RNA: B1 RNA with U28A, C29A, A39C, U40C
B30: Id_ii_S2_P4E.3_K4.2_C4.2_[C-2A]_H4.2_A4.1_F4.1_T4.2_[G10C]_[T11C] (ssRNA)
RNA: B1 RNA with U28A, C29U, A39C, U40C
B31: Id_ii_S2_P4E.3_K4.2_C4.2_[T-1G]_H4.2_A4.1_F4.1_T4.2_[G10A]_[T11G] (ssRNA)
RNA: B1 RNA with U28C, C29G, U40G
B32: Id_ii_S2_P4E.3_K4.2_C4.2_[C-2A]_H4.2_A4.1_F4.1_T4.2_[G10C]_[T11G] (ssRNA)
RNA: B1 RNA with U28A, C29U, A39C, U40G
B33: Id_ii_S2_P4E.3_K4.2_C4.2_[T-1G]_H4.2_A4.1_F4.1_T4.2_[G10A]_[T11C] (ssRNA)
RNA: B1 RNA with U28C, C29G, U40C
B34: Id_ii_S2_P4E.3_K4.2_C4.2_[C-2A]_[T-1C]_H4.2_A4.1_F4.1_T4.2_[G10A]_[T11C] (ssRNA)
RNA: B1 RNA with U28A, U40C
B35: Id_ii_S2_P4E.3_K4.2_C4.2_[T-1C]_H4.2_A4.1_F4.1_T4.2_[G10T]_[T11G] (ssRNA)
RNA: B1 RNA with U28C, A39U, U40G
B36: Id_ii_S2_P4E.3_K4.2_C4.2_[C-2T]_[T-1A]_H4.2_A4.1_F4.1_T4.2_[G10C]_[T11A] (ssRNA)
RNA: B1 RNA with C29A, A39C, U40A
B37: Id_ii_S2_P4E.3_K4.2_C4.2_[C-2A]_H4.2_A4.1_F4.1_T4.2_[G10T]_[T11G] (ssRNA)
RNA: B1 RNA with U28A, C29U, A39U, U40G
B38: Id_ii_S2_P4E.3_K4.2_C4.2_[C-2T]_[T-1A]_H4.2_A4.1_F4.1_T4.2_[T11C] (ssRNA)
RNA: B1 RNA with C29A, A39G, U40C
B39: Id_ii_S2_P4E.3_K4.2_C4.2_[C-2A]_H4.2_A4.1_F4.1_T4.2_[G10C]_[T11A] (ssRNA)
RNA: B1 RNA with U28A, C29U, A39C, U40A
B40: Id_ii_S2_P4E.3_K4.2_C4.2_[C-2A]_[T-1C]_H4.2_A4.1_F4.1_T4.2_[G10C] (ssRNA)
RNA: B1 RNA with U28A, A39C
B41: Id_ii_S2_P4E.3_K4.2_C4.2_[C-2T]_H4.2_A4.1_F4.1_T4.2_[G10C]_[T11A] (ssRNA)
RNA: B1 RNA with C29U, A39C, U40A
B42: Id_ii_S2_P4E.3_K4.2_C4.2_[C-2T]_H4.2_A4.1_F4.1_T4.2_[T11C] (ssRNA)
RNA: B1 RNA with C29U, A39G, U40C
B43: Id_ii_S2_P4E.3_K4.2_C4.2_[T-1C]_H4.2_A4.1_F4.1_T4.2_[G10C]_[T11G] (ssRNA)
RNA: B1 RNA with U28C, A39C, U40G
B44: Id_ii_S2_P4E.3_K4.2_C4.2_[C-2A]_[T-1A]_H4.2_A4.1_F4.1_T4.2_[G10C]_[T11A] (ssRNA)
RNA: B1 RNA with U28A, C29A, A39C, U40A
B45: Id_ii_S2_P4E.3_K4.2_C4.2_[T-1C]_H4.2_A4.1_F4.1_T4.2_[G10C]_[T11A] (ssRNA)
RNA: B1 RNA with U28C, A39C, U40A
B46: Id_ii_S2_P4E.3_K4.2_C4.2_[C-2A]_H4.2_A4.1_F4.1_T4.2_[G10A]_[T11C] (ssRNA)
RNA: B1 RNA with U28A, C29U, U40C
B47: Id_ii_S2_P4E.3_K4.2_C4.2_[C-2A]_H4.2_A4.1_F4.1_T4.2_[G10C] (ssRNA)
RNA: B1 RNA with U28A, C29U, A39C
B48: Id_ii_S2_P4E.3_K4.2_C4.2_[C-2A]_[T-1C]_H4.2_A4.1_F4.1_T4.2_[G10A] (ssRNA)
RNA: B1 RNA with U28A
B49: Id_ii_S2_P4E.3_K4.2_C4.2_[C-2A]_[T-1C]_H4.2_A4.1_F4.1_T4.2_[G10T]_[T11G] (ssRNA)
RNA: B1 RNA with U28A, A39U, U40G

Biological target: T1, PUF4 RNA-binding domain
Experiment: Mg; RNA-MaP; 20 mM Na-HEPES pH 7.4, 30 mM KOAc, 0.75 mM MgCl2, 0.1% Tween-20, 5% glycerol, 0.1 mg/mL BSA, 2 mM DTT; 25 C; 0.0125-409.6 nM protein
Details: tags: N-His6-TEV cleaved; C-SNAP kept, Cy3B-labelled; label: tethered on chip by stalled RNA polymerase

Row | Binder | Kd [nM]
1 | UCUCUUUGUUUUAUUGUCUCUU (ssRNA) [Ib_S1_P5E.1_K5.1_C5.1_H5.1_[A4T]_A5.1_F5.1_[A10G]_T5.1] | 378
2 | UCUCUUUGUGUUAUUGUCUCUU (ssRNA) [Ib_S1_P5E.1_K5.1_C5.1_H5.1_[A4G]_A5.1_F5.1_[A10G]_T5.1] | 382
3 | UCUCUUUGUCUUAUUGUCUCUU (ssRNA) [Ib_S1_P5E.1_K5.1_C5.1_H5.1_[A4C]_A5.1_F5.1_[A10G]_T5.1] | 840
4 | B1 | 8.89
5 | B2 | 7.25
6 | B3 | 700
7 | B4 | 10.6
8 | B5 | 3.66
9 | B6 | 23.8
10 | B7 | 12.2
11 | B8 | 135
12 | B9 | 233
13 | B10 | 17
14 | B11 | 16.8
15 | B12 | 21.1
16 | B13 | 20.5
17 | B14 | 159
18 | B15 | 8.62
19 | B16 | 14.9
20 | B17 | 17.3
21 | B18 | 9.27
22 | B19 | 35.9
23 | B20 | 284
24 | B21 | 7.36
25 | B22 | 661
26 | B23 | 8.87
27 | B24 | 214

Row | Binder | Kd [nM]
28 | B25 | 141
29 | B26 | 6.27
30 | B27 | 7.44
31 | B28 | 14.9
32 | B29 | 56.4
33 | B30 | 12.8
34 | B31 | 266
35 | B32 | 25.3
36 | B33 | 22.8
37 | B34 | 13.3
38 | B35 | 5.86
39 | B36 | 17.5
40 | B37 | 26.1
41 | B38 | 10.2
42 | B39 | 18.2
43 | B40 | 9.33
44 | B41 | 8.41
45 | B42 | 5.53
46 | B43 | 9.56
47 | B44 | 160
48 | B45 | 9.95
49 | B46 | 40.9
50 | B47 | 14.2
51 | B48 | 14.7
52 | B49 | 135
53 | UCUCUUUGCAUUAUUCUCUCUU (ssRNA) [Ib_S1_P5E.1_K5.1_C5.1_H5.1_[T3C]_A5.1_F5.1_[A10C]_T5.1] | > 2300
